In publication PMC5339304 one finds modal value of binding strength data, which are given here for 1 substance.

This test deals with DC-specific intercellular adhesion molecule 3-grabbing non-integrin (DC-SIGN) (human) (UniProt Q9NNX6). Put plainly: atomic force spectroscopy (AFM force spectroscopy); MUB covalently attached to the AFM tip (MAL-PEG-SCM linker), DC-SIGN, SIGN-R1 or Dectin-2 covalently attached to glass slides (GMBS); PBS; force-volume mode, 2 um/s, maximum load force 300 pN; repeated after addition of 0.05 mg/ml anti-Mub antibody.

On to “mucus-binding protein MUB of Lactobacillus reuteri ATCC 53608 (natural protein)”, for which the modal value of binding strength is 684 pN.
